# Experimental data taken from the RNAGym collection of RNA variant scans (doi:10.1073/pnas.2313332121).
# B1: TPR t1 (parent)
# chain: GACCAAUCUGCCCUCAGAGCUCGAGAACAUCUUCGGAUGCAGAGGAGGCAGGCUUCGGUGGCGCGAUAGCGCCAACGUCCUCAACCUCCAAUGCAUCCCACCACAUGAUGAUGCCUGAAGAGCCUUGGUUUUUUG
# Variants of: B1
# Assay: polymerase ribozyme fitness, log enrichment relative to wild type (log ratio); higher = more active; in vitro selection for triplet polymerase activity
# Procedure, shortened: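 Mutant libraries for each subunit of a heterodimeric triplet polymerase ribozyme were made by PCR and then transcribed. Each library underwent one round of in vitro selection in triplicate: annealing with a biotinylated primer, the partner subunit and triplets, frozen incubation at −7 °C, gel excision of extended constructs, streptavidin-bead capture and RT-PCR. Input and output libraries were Illumina-sequenced, and only genotypes with ≥10 input reads and ≥1 read per output were kept. Fitness is the logarithm, base 2, of genotype enrichment over wild-type enrichment, computed from inverse-variance-weighted replicate averages.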
row,Variant,polymerase ribozyme fitness (log ratio)
1,G10U C34G G65U A66C C123U U125A G128U,-7.34
2,G10U C22A A119U,-5.31
3,G10U C22A C72U U92G A105U A118G,-7.38
4,C11A C12U,-0.179
5,C11A C12A,-1.15
6,G10U A29C G60A,-3.27
7,G10U G48C G60A,-0.865
8,G10U G17U C56U U109A G110C A118G C123A,-6.9
9,G10U A41C G48U G113C,-3.37
10,C11A C89A A111U G122A,-5.04
11,G10U A26U,-2.52
12,G10U C13G G120C,1.66
13,G10U U92A A111G,-4.02
14,G10U A43U C73G A108G,-6.59
15,G10C C64U A121U U131A,1.16
16,C11A C40A G52A U92A,-3.14
17,G10U C13A G48U C94U U132A,-0.329
18,G10U C12U C82A A84G,-0.497
19,G10U G17A C56G C62U C79U,-4.53
20,G10C C49G G61A U81C G120C,-4.13
21,C11A C49G,-1.67
22,G10U G48U G93A,-1.17
23,G10U G113C U125A,-3.42
24,G10U U38G C70A C73U C123A U130G,-3.12

row,Variant,polymerase ribozyme fitness (log ratio)
1,C11A C12U A37G U78A U131A,-1.88
2,G10U G128U U132C,-0.604
3,C11A A50U,-2.48
4,G10U C114A U125A G135U,-3.39
5,G10U C72G A91G,-1.95
6,G10U G36A,-0.638
7,C11A A29U U59A C70A G120A,-1.52
8,C11A C70G C80U C97G C124A,-5.66
9,C11A C20U C40A A43U A119U,-5.02
10,G10U C22U G47A U96A C123A,-5.89
11,C11A C82A,-2.13
12,G10U U59C C85U,-0.716
13,G10U G58U U78C G122A C124U,0.946
14,G10U C13G G45U C72A A91G C102A A118U C124G U132A U133C,-3.66
15,G10C G52U G60A C89A,-4.24
16,G10U A84G G120A U125G,0.926
17,G10U C82A U92G U116C A119U,-5.07
18,G10U C40G U96G,-4.29
19,G10U C11A C13G G19A G57U A90G A91U,-2.55
20,G10U C56G A111C,-0.962
21,G10U A26C A74G A90U G120A,-5.63
22,G10U C13A A41C G71A C85U,-3.61
23,G10U G93A,-0.609
24,C11A A84G,-2.26

row,Variant,polymerase ribozyme fitness (log ratio)
1,G10U G42U C89U,-1.96
2,G10C C40U G45U,-1.47
3,G10C U96G C97U G120C G135U,-5.98
4,C11A A37U C62A C102A,-5.51
5,G10U C22G G60C C88A,-4.88
6,G10C G71U C86U,-1.57
7,C11A C31G G47A U92C G120A U131A,-5.58
8,G10U C82U,-0.583
9,G10U C20A G42A G93U C115U,-3.5
10,G10C U32C C114U,-0.699
11,C11A A29G C56G A91C U112A A121G G122C,-1.75
12,G10U C28U G63A,-4.31
13,G10U C40G G52C C98U C123U,-2.05
14,C11A A50G U81A,-2.23
15,G10U U32C C56A C64A,-6.8
16,G10U C12A C56A C72A C82A,-1.27
17,G10U A118U,-0.131
18,G10C G63A C80U,-3.07
19,G10U C53G U55A C56A G63A,-2.18
20,G10U G45U,-0.583
21,C11A C85U,-1.28
22,G10U G51C U106C,-3.5
23,G10U G42A G45U,-3.02
24,G10U C56G A68G,-4.36

row,Variant,polymerase ribozyme fitness (log ratio)
1,C11A A29U U59A C70U G120A,-1.3
2,G10U U30C C124G,-2.38
3,G10U A75U,-0.536
4,G10U G71A,-0.104
5,G10U G71U,-0.746
6,C11A C13U G63U,-2.94
7,C11A A74U,-2.52
8,G10U G69A A91C,-7.2
9,C11A C53U U129A,-2.66
10,C11A C13A C40U,-3.65
11,G10U U54A,-1.28
12,G10U C20A A50C C72U C114U,-4.68
13,G10C G61A U96A,-0.958
14,G10C G48A C64U G117U U125G,-6.03
15,G10U U78C C86U G110A,-1.98
16,G10C C115A G128A,-3.1
17,G10U A27U U109A,-4.99
18,C11A C85A C114A C123U,-2.71
19,C11A C13U G60C A100C U132C,-2.62
20,C11A C13U,-1.75
21,G10C G17U G63A,-4.45
22,G10U A27G,-0.702
23,G10C G60U C82A U96A G107U A119U,-6.51
24,G10U A50U G63A,-3.1

row,Variant,polymerase ribozyme fitness (log ratio)
1,C11A C40A A74G G135U,-2.09
2,G10C U87C,-1.18
3,G10U G42U A91C U106A U112A,-0.271
4,C11A C13G G36U,-2.87
5,G10U C12U A43U A118U,-0.927
6,C11A C62U G117A G122A,-0.74
7,G10C C40G C56G G77U U112C,-0.0532
8,G10U A29U C86A U112C,-1.11
9,G10C G42C C123A G128A,-2.91
10,G10C G52C G77U A121U,0.617
11,G10U U14A C40A,-2.63
12,G10C C49G U55G C94A,-3.2
13,G10U C20A,-3.25
14,G10U U59A G71U,-2.51
15,C11A A41U G47A U109A,-5.79
16,G10U A37C C53G A95G,-0.638
17,C11A C72U U78C C82G C101A A121C,-0.882
18,G10U A16U C72U C79A C114G C123A U130G,-6.07
19,G10U C73U,-0.579
20,G10U C13G,0.0488
21,G10U U87G C88G C98U G113A,-1.98
22,G10U G19A G36C C79U,-3.73
23,G10U C15G U21A A90G G93U G120C G135U,-3.07
24,G10U G63U G113C,-4.79

row,Variant,polymerase ribozyme fitness (log ratio)
1,G10U C85U,-0.736
2,G10U C13U G48A G61A A83U C98U G117A,-2.09
3,G10C C40G A66U,-2.18
4,C11A C64U U106A A108U,-3.91
5,C11A C12G A27U G63U G77A,-5.74
6,G10U G17U G45U C104U C124A,-1.08
7,G10U C62U A111C G117C,-5.6
8,G10U C97U,-0.693
9,G10C C34U,-5.43
10,C11A C28U G36A U81A C85U G120A,-4.25
11,G10C C40G C56G G61A A68U G77U U112C,-6.74
12,G10U C15A G61U A75C G117A,-3.07
13,C11A C73G,-1.79
14,C11A C15U C28G C123G G128U,-5.63
15,C11A C22G G48A C72G A119G,-4.64
16,G10U C40U G52U C64U,-1.92
17,G10C G57C,-0.669
18,C11A C49G G60A G93U,-2.13
19,G10U G45A U78A A100U,-1.09
20,G10C G45A C104A,-2.44
21,G10U C124U,1.37
22,C11A C12U G61U A100U,-1.23
23,G10U C15U G69U A91C U125A,-3.03
24,G10U G47C C104U,-1.69

row,Variant,polymerase ribozyme fitness (log ratio)
1,G10U A46U C82G G127U,-3.03
2,G10C G128C,-3.1
3,G10U G51A,-2.56
4,G10U G51C,-3.01
5,G10U C62A G71U G127C,-0.898
6,C11A C53G,-1.8
7,C11A C53U,-1.77
8,G10U C80U,-0.415
9,G10U G23A U30G U32A G35U G51A C70G,-6.22
10,C11A C56A A66G C85A U112A,-4.09
11,G10U C89A G117U,-4.64
12,G10C C56U,-0.594
13,G10U C70U U78C C82G,-2.45
14,C11A C13G C72U C88G G113A,-5.81
15,C11A C12U A37G C73U U78A U131A,-0.943
16,G10U C11G U14A A37G C76U G93C C102A,-5.35
17,G10C G117A,-1.75
18,G10U U30C U33C G71U C79U C101A C102G A111U,-7.18
19,G10U G77A C79U C94U,-0.432
20,G10U G44A G52U G122A C123U C124G U130G,-1.61
21,G10U A27C G44C G69U C88G G93A C114A,-6.93
22,G10C C34U A43U C101G G107C,-7.66
23,C11A C94U,-1.19
